± gives the uncertainty stated by the source.
Test: self-splicing fitness, log relative to wild type (ln ratio); higher = more splicing; Tetrahymena group I intron in knt gene, E. coli kanamycin selection, DiMSum; sequences stand for … in CUCUCU…GGAGGGAAAAGUUAUCAGGCAUGCACCUGGUAGCUAGUCUUUAAACCAAUAGAUUGCAUCGGUUUAAAAGGCAAGACCGUCAAAUUGCGGGAAAGGGGUCAACAGCCGUUCAGUACCAAGUCUCAGGGGAAACUUUGAGAUGGCCUUGCAAAGGGUAUGGUAAUAAGCUGACGGACAUGGUCCUAACCACGCAGCCAAGUCCUAAGUCAACAGAUCUUCUGUUGAUAUGGAUGCAGUUCACAGACUAAAUGUCGGUCGGGGAAGAUGUAUUCUUCUCAUAAGAUAUAGUCGGACCUCUCCUUAAUGGGAGCUAGCGGAUGAAGUGAUGCAACACUGGAGCCGCUGGGAACUAAUUUGUAUGCGAAAGUAUAUUGAUUAGUUUUGGAGUACUCGUGGUCG
Outline: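 The eight P1ex-region nucleotides of an intron in the knt kanamycin-resistance gene on pET-22b(+) were all randomised and the library put into E. coli BL21(DE3). Six replicate transformations were grown overnight at 37°C or 30°C on LB agar with or without 25 μg/mL kanamycin, together with 100 μg/mL carbenicillin, 50 μM IPTG and 0.2% rhamnose. Colonies were pooled and amplicon-sequenced on an Illumina HiSeq 2500. Fitness from DiMSum is the error-weighted combination of wild-type-normalised replicate fold changes, kanamycin over none.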

Sequence	self-splicing fitness (ln) (30 °C)	self-splicing fitness (ln) (37 °C)
ACCAAGCAAUAUUACGAGGC	-3.14 ± 0.14	-2.32 ± 0.22
ACCAAGCAAUAUUACGAGGU	-3.76 ± 0.21	-2.22 ± 0.18
ACCAAGCAAUAUUACGAUGG	-1.76 ± 0.076	-0.995 ± 0.12
ACCAAGCAAUAUUACGCAAA	-1.56 ± 0.12	-1.74 ± 0.15
ACCAAGCAAUAUUACGCAAU	-2.01 ± 0.1	-1.04 ± 0.1
ACCAAGCAAUAUUACGCACA	-0.684 ± 0.075	0.0111 ± 0.087
ACCAAGCAAUAUUACGCAGA	-2.84 ± 0.25	-0.709 ± 0.14
ACCAAGCAAUAUUACGCAUG	-3.75 ± 0.11	-2.2 ± 0.11
ACCAAGCAAUAUUACGCGCC	-1.35 ± 0.11	0.198 ± 0.14
ACCAAGCAAUAUUACGCGGC	-3.19 ± 0.25	-2.39 ± 0.21
ACCAAGCAAUAUUACGCGGU	-3.54 ± 0.12	-2.84 ± 0.16
ACCAAGCAAUAUUACGCUAG	-2.03 ± 0.071	-1.52 ± 0.1
ACCAAGCAAUAUUACGGAGA	-3.16 ± 0.15	-1.66 ± 0.11
ACCAAGCAAUAUUACGGAUG	-2.47 ± 0.069	-2.48 ± 0.088
ACCAAGCAAUAUUACGGCCA	-0.654 ± 0.099	0.134 ± 0.12
ACCAAGCAAUAUUACGGCUG	-1.55 ± 0.068	-0.288 ± 0.081
ACCAAGCAAUAUUACGGUCC	-2.8 ± 0.12	-1.07 ± 0.12
ACCAAGCAAUAUUACGUACG	-2.52 ± 0.083	-1.28 ± 0.092
ACCAAGCAAUAUUACGUAGC	-3.58 ± 0.13	-2.44 ± 0.13
ACCAAGCAAUAUUACGUGGG	-3.46 ± 0.13	-2.4 ± 0.11
ACCAAGCAAUAUUACGUUAU	-2.95 ± 0.087	-2.04 ± 0.093
ACCAAGCAAUAUUACGUUGG	-3.54 ± 0.12	-2.22 ± 0.14
ACCCAGCAAUAUUACGAACA	-0.802 ± 0.11	-1.35 ± 0.13

From the supplement of paper PMC7877785
